Results from patent publication US20150010589A1.

What was measured:
[1] = target: soluble collagen type I (pepsin-digested, non-fibrillar, triple helical; BD Biosciences) (human) (UniProt P02452); assay: SPR, saliva injected over immobilized collagen type I, 120 sec at 20 µl/min
[2] = target: soluble collagen type III (pepsin-digested, non-fibrillar; BD Biosciences) (human) (UniProt P02461); assay: SPR, saliva injected over immobilized collagen type III, 120 sec at 20 µl/min
[3] = target: horse tendon insoluble fibrillar Horm collagen (Chrono-Log), collagen I (95%) and III (5%) (horse); assay: cell-based or functional assay
[4] = target: collagen-related peptide (CRP) GCO-(GPO)10-GCOG-NH2, cross-linked; assay: SPR, Aegyptin over immobilized cross-linked (GPO)10 peptide, two-state model
[5] = target: collagen-related peptide (CRP) GCO-(GPO)10-GCOG-NH2, cross-linked; assay: SPR, Aegyptin over immobilized cross-linked (GPO)10 peptide, two-state model; Ka1
[6] = target: collagen-related peptide (CRP) GCO-(GPO)10-GCOG-NH2, cross-linked; assay: SPR, Aegyptin over immobilized cross-linked (GPO)10 peptide, two-state model; Kd1
[7] = target: collagen-related peptide (CRP) GCO-(GPO)10-GCOG-NH2, cross-linked; assay: SPR, Aegyptin over immobilized cross-linked (GPO)10, two-state binding model (the table prints 5.101 µM)

soluble collagen type III (pepsin-digested, non-fibrillar; BD Biosciences) (human), sequence (P02461 168-1196 limits assumed): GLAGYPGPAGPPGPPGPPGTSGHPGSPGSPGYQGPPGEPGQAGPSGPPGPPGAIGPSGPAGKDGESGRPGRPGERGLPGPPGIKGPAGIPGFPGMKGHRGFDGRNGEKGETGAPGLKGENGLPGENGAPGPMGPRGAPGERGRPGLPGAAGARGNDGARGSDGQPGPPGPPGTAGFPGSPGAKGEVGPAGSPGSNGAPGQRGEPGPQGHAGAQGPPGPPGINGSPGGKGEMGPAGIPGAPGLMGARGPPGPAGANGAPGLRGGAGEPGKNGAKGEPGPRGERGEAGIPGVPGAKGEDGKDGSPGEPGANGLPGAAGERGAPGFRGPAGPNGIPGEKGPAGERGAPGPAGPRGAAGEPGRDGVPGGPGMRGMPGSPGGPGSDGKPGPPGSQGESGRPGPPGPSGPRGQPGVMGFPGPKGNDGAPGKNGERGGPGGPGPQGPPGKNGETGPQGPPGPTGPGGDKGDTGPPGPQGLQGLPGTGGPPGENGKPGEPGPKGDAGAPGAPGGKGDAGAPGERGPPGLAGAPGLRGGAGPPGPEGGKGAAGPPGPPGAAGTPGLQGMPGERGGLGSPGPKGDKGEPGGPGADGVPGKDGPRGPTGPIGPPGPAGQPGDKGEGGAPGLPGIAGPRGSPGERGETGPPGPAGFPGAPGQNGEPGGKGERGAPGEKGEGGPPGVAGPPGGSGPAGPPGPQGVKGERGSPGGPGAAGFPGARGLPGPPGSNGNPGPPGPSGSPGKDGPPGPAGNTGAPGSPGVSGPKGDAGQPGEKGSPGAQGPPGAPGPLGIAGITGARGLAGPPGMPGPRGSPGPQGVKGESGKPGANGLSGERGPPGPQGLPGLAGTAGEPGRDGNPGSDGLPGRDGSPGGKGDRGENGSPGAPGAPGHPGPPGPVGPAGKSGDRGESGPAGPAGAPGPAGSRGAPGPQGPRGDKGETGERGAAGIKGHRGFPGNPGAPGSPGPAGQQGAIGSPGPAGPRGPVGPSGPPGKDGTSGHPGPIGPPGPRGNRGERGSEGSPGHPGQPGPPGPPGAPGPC
soluble collagen type I (pepsin-digested, non-fibrillar, triple helical; BD Biosciences) (human), sequence (P02452 179-1192 limits assumed, chain 1 of 2): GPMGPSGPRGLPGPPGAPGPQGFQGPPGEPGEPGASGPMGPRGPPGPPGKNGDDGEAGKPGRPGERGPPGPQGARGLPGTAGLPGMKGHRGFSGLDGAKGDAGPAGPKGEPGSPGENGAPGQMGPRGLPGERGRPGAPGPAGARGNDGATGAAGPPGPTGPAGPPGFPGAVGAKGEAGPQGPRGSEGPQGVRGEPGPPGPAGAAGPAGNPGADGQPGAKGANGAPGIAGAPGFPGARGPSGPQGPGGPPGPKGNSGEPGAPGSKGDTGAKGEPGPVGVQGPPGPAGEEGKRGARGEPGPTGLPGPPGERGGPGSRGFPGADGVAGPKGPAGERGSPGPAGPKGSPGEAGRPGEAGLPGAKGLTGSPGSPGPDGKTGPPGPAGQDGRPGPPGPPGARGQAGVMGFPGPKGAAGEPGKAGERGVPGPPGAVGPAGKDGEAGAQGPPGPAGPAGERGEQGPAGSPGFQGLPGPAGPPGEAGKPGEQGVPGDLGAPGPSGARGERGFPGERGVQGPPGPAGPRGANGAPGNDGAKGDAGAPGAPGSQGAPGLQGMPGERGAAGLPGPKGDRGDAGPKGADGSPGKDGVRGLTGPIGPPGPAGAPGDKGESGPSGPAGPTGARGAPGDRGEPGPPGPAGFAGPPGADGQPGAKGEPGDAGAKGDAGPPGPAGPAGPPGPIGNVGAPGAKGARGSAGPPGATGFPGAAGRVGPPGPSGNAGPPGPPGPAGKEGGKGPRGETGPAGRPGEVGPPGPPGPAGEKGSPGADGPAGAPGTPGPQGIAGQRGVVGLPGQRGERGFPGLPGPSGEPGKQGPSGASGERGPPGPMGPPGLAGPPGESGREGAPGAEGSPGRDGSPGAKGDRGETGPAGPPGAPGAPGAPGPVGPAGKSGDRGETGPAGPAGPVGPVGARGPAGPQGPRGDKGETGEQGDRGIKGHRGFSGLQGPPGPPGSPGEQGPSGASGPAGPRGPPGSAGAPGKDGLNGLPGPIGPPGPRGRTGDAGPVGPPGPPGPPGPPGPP
soluble collagen type I (pepsin-digested, non-fibrillar, triple helical; BD Biosciences) (human), sequence (P08123 91-1104 limits assumed, chain 2 of 2, further chain): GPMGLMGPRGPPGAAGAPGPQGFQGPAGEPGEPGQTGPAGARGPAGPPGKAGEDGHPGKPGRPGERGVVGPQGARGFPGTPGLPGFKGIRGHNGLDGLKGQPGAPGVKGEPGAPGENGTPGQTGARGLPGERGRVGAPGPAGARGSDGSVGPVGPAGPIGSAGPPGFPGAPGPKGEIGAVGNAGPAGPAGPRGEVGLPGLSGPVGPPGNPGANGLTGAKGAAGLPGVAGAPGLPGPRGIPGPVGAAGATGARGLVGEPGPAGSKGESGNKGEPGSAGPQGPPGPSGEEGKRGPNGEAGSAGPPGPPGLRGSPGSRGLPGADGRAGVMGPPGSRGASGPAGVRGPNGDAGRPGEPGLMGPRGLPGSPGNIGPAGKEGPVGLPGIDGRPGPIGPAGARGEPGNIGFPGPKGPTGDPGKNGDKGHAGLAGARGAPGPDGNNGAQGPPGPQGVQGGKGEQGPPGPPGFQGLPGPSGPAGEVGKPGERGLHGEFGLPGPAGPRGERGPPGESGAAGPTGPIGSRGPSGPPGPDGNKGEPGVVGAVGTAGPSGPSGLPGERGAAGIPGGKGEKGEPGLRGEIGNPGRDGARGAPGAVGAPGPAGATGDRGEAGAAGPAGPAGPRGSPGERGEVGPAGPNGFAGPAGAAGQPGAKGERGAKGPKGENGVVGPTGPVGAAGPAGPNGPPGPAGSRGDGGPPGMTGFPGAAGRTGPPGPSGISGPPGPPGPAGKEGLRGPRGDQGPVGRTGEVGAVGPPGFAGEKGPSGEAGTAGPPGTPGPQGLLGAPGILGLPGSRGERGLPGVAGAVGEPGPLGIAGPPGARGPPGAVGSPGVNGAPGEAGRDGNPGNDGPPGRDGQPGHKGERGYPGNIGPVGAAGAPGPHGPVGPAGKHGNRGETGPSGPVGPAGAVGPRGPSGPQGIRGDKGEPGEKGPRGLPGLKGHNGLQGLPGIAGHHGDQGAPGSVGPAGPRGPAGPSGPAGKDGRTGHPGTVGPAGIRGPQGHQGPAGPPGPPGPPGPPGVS

With “Ae. aegypti saliva (collected by oil-induced salivation)” the Response (RU) [1] was 556 RU and the Response (RU) [2] was 348 RU.
“Aegyptin C-terminus-2 (137 aa), truncated form without GEEDA repeats (from UniProt O01949 137-273)” showed a collagen-induced platelet aggregation [3] of 3 µM.
Work on “recombinant Aegyptin (mature protein with C-terminal 6xHis tag, expressed in 293-F cells) (from UniProt O01949 20-273)” yielded a Kd [4] of 5.1 µM, a Kd2 [4] of 0.0289 s⁻¹ and a kon [5] of 206000 M⁻¹ s⁻¹. For the same substance, the koff [6] was 1.19 s⁻¹ and the Kd [7] was 5.01 µM.
